T1: canine PD-1 ECD-6His (canine)
T1 construct: also called recombinant canine PD-1-ECD-6His protein; not shown: hexahistidine tag
T1 chain: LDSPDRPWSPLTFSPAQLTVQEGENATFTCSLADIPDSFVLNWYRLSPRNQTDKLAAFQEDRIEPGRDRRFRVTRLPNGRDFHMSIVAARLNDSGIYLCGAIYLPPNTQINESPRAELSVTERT

B1: PMX126 (antibody, V domains shown)
VH: EVQLVESGGDLVKPAGSLRLSCLASGFTFSSYSMSWVRQAPEKGLQSVAGINSDGDRTYYTDAVKGRFTISRDNAKSTVYLQMNSLRAEDTAMYYCVRGFSSFNAFGYWGQGTLVTVSS
VL: DIVMTQTPLSLSVSPGETASISCKASQSLLHSDGNTYLSWFRQKPGQSPHRLIYAVSHRHPGVPDRFSGSGSGTDFTLRISRVEADDAGLYYCGQVIQDPWTFGAGTKVELK
notes: Alexa Fluor 647-labelled in some assays
B2: PMX152 (antibody, V domains shown)
VH: EVQLVESGGDLVKPGGSLRLSCVASGFTFSRYYMNWVRQAPGKGPQWVAYINNAGSDRNYVDAVKGRFTISRDNAKNTLYLQMNSLRAEDTAVYYCASEIRGVVVVGHLDYWGQGTLVTVSS
VL: SYVLTQLPSKSVTLNQPAHITCGGDNIGSKSVHWYQQKLGQAPVLIIYYDSIRPTGIPERFSGATSGNTATLTISGALAEDEADYYCQVWDSSAKAWVFGEGTQLTVL
notes: also called PM152
B3: PMX127 (antibody, V domains shown)
VH: EVQLVESGGDLVKPGGSLRLSCVASGFSFSRYHMSWVRQAPGKGLQWVAYIVSGGISTSYADAVKGRFTISRDNAKNTLFLQMNSLRAEDTAVYYCATYGSYFFDTWGQGTLVTVSS
VL: DIVMTQTPLSLSVSPGETASIFCKASQSLLHSDGKSYLNWFRQKPGQSPQRLIYRVSNRDPGVPDRFSGSGSGTDFTLRISRVEADDTGLYYCGQVIQDPTFGAGTKVELK
notes: Alexa Fluor 647-labelled in some assays; also called PM127

Columns and labels:
[1] = biological target: T2, recombinant human PD-1 ECD-6His protein (Bio-Techne, item BP164049-1 mg) (human, UniProt Q15116 25-170); test: SPR, mAb captured on protein A chip, PD-1 protein injected
T2 construct: extracellular domain; Bought protein; also called human PD-1-ED-6His; recombinant human PD-1 protein; not shown: hexahistidine tag
T2 sequence (Q15116 25-170): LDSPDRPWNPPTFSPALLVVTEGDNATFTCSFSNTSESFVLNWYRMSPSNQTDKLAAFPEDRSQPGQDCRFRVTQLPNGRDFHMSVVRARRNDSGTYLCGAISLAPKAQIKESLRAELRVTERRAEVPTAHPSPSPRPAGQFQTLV

[2] = biological target: T1, canine PD-1 ECD-6His; test: SPR multi-cycle kinetics, mAb captured on protein A chip, monomeric PD-1 ECD-6His analyte
Method: SPR-based monomeric affinity assays were conducted as multi-cycle kinetic experiments. Around 100 RU of purified monoclonal antibody was captured on Fc2 of a series S protein A chip (Cytiva). […] At the end of each cycle, the chip surface was regenerated with a 120 s pulse of 10 mM Glycine pH 1.9 at 30 μL/min. The data were analysed using Biacore Insight package (Cytiva) by fitting to a global 1:1 binding model with kinetic analysis.

Binder	binding result [1]	binding result [2]
B1	no binding (tested: 900 nM)	–
B2	–	binds
B3	no binding (tested: 900 nM)	–
